Experiments:
xhNup93-Nb3t = assay: BLI
xNup93-Nb1t = assay: BLI

- Kd (xhNup93-Nb3t): < 0.01 nM
- Kd (xNup93-Nb1t): 0.1 nM
B1: recombinant Xenopus Nup93 target (BLI) (natural protein)
chain: MDGEGFGELLQQAEQLAAETEGVTELPHVERNLQEIQQAGERLRSKTMTRTSQESANVKASVLLGSRGLDISHISQRLESLSAATTFEPLEPVKDTDIQGFLKNEKDNALLSAIEESRKRTFVMAEEYHRESMLVEWEQVKQRVLHTLLASGEDALDFTQESETSYISESGAPGRSSLDNVEMAYARQMYMYNEKVVSGHLQPSLVDLCTEAAERLDDKNVSDLWVMVKQMTDVPLIPASDTLKSRCSGQMQMAFVRQALNYLEQSYKNYTLISVFANLQQAQLGGVPGTYNLVRSFLNIRLPTPIPGLQDGEIEGYPVWALIYYCMRCGDLMAAQQVVNRAQHQLGDFKNCFQEYIHNKDRRLSPTTENKLRLHYRRAVRASTDPYKRAVYCIIGRCDVSDNHSEVADKTEDYLWLKLSQVCFEDEANSSPQDRLTLPQFQKQLFEDYGESHFAVNQQPYLYFQVLFLTAQFEAAIAFLFRLERTRCHAVHVALALFELKLLLKSTGQSAQLLSQEPGEPQGVRRLNFIRLLMLYTRKFEPTDPREALQYFYFLRNEKDNQGESMFLRCVSELVIESREFDMLLGKLEKDGSRKPGAIDKFTRDTKTIINKVASVAENKGLFEEAAKLYDLAKNPDKVLELTNKLLSPVVSQISAPQSNRERLKNMALAIAERYKSQGVSAEKSINSTFYLLLDLITFFDEYHAGHIDLSFDVIERLKLVPLSQDSVEERVAAFRNFSDEIRHNLSEILLATMNILFTQYKRLKGSGPTTLGRPQRVQEDKDSVLRSQARALITFAGMIPYRMSGDTNARLVQMEVLMN
